Columns and labels:
[1] = molecular target: c-Met receptor on OVCAR-8 cells (human) (UniProt P08581); experiment: cell-based or functional assay
human c-Met ECD (human) = human c-Met ECD (human) (UniProt P08581); experiment: SPR (Biacore T100), antibody captured by anti-Fc gamma, c-Met ECD in solution, 25 C

% Internalization of c-Met after 2 h on OVCAR-8 cells (=100-% antibody on cell surface) [1]: -14%
% c-Met receptor on OVCAR-8 cell surface measured after 2 h [1]: 114%
Kd (human c-Met ECD (human)): 5.5 nM
Substance: BsAB01, trivalent bispecific <ErbB1-c-Met> antibody (full length cetuximab with one c-Met 5D5 single chain Fab fragment at the C-terminus of the knob heavy chain) (bispecific antibody)
